Results from patent US20040002450A1, “Y17 - isolated molecules comprising epitopes containing sulfated moieties, antibodies to such epitopes, and uses thereof” (priority 2000, published 2004).
Non-standard residues stand in square brackets, D forms with d. No end group written: not given here. sY = N[C@@H](Cc1ccc(OS(=O)(=O)O)cc1)C(=O)O

What was measured:
Conditions in all cases: remark: other sources report otherwise
Y1 scFv [1] = test: competition ELISA on coated glycocalicin, 0.25 µg/well Y1, peptide 0.5 µM
Chain of Y1 scFv (chain, as listed by the source): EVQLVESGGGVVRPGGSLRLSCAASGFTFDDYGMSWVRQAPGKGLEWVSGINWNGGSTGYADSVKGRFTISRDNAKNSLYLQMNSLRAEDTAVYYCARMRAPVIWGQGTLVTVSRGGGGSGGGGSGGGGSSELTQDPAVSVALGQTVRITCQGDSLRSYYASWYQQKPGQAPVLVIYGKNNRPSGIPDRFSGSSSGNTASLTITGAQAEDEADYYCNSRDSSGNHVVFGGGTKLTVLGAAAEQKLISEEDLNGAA

Y1 scFv [2] = test: competition ELISA on coated glycocalicin, 0.25 µg/well Y1, peptide 2.5 µM
Y1 scFv [3] = test: competitive FACS, 1 µg Y1-scFv on ~10^7 washed platelets, peptide 200 µM
Y1 scFv [4] = test: competition ELISA on coated glycocalicin, 0.25 µg/well Y1, peptide 25 µM
Y1 scFv [5] = test: competition ELISA on coated glycocalicin, 0.25 µg/well Y1, peptide 200 µM
Y1 scFv [6] = test: competitive FACS, 1 µg Y1-scFv on ~10^7 washed platelets, peptide 2.5 µM

Residual Binding of Y1 (% of baseline) (% of baseline) (Y1 scFv [1]): 89
Residual Binding of Y1 (% of baseline) (% of baseline) (Y1 scFv [2]): 62
Residual Binding of Y1 (% of baseline) (Geo Mean) (% of baseline) (Y1 scFv [3]): 5
Residual Binding of Y1 (% of baseline) (% of baseline) (Y1 scFv [4]): 25
Residual Binding of Y1 (% of baseline) (% of baseline) (Y1 scFv [5]): 0
Residual Binding of Y1 (% of baseline) (Geo Mean) (% of baseline) (Y1 scFv [6]): 41
Binder: GDEGDTDL[sY]D[sY][sY]PEEDTE [P-1-S]
